In one series the target is MBD2 MBD (chicken) (chicken, UniProt Q5EFL0 1-71). The series is described as follows: NMR.
In another series the target is MBD2 MBD+IDR (chicken) (chicken, UniProt Q5EFL0 1-117). In words: NMR.

B1: INV mCpG DNA (dsDNA)
DNA 1: GGACCGACTC
DNA 2: GAGTCGGTCC
modifications: 5mC at position 5 of strand 1; complement methylation implied
On to B1, for which the binding result in the series with MBD2 MBD (chicken) and in the series with MBD2 MBD+IDR (chicken) was “binds” in each case.

Values taken from PMC5587734.
